Measurements reported in patent US20230035798A1 (CAPELLA BIOSCIENCE, published 2023).
Changes are numbered by the printed parent chain.

B1: 3E09 (antibody, V domains shown)
VH: EVQLVESGGGLVKPGGSLKLSCEASGFTFSDYYMYWVRQTPEKRLEWVAAIGDGGIYTYYADTVKGRFTISRDNAKNILYLQMSSLKSNDTAMYYCARGTGDGFAYWGQGTLVTVS
VL: DIVLTQSPASLAVSLGQRATISCRASESVDSYGNSFMHWYQQKPGQPPKLLIYLASNLESGVPARFSGSGSRTDFTLTIDPVEADDAATYYCQQNNEDPYTFGGGTKLEIK
notes: chimeric human IgG4 (S-to-P, L-to-E at 248), human CL; also called Parental 3E09
B2: 2E08 (antibody, human IgG4, V domains shown)
VH: QVQMKESGAELVRPGVSVKISCKGSGYTFTDYAIHWVKQSHAKTLEWIGVISTYYGDASYNQKFKGKATMTVDKSSSTAYMELARLTSDDSAIYYCARSRGEYGNYDAMDYWGQGTSVTVSS
VL: DIVLTQSPASLAVSLGQRATISCKASQSVDYDGDSYMNWYQQKPGQPPKLLIYAASNLESGIPARFSGSGSGTDFTLNIHPVEEEDAATYYCQQSNEDPLTFGAGTKLELK
notes: chimeric human IgG4 (S-to-P, L-to-E at 248), human CL; also called Parental 2E08
B3: 2B11 (antibody, human IgG4, V domains shown)
VH: B2 VH with Q1E, M4L, K5V, T44S, D89E
VL: B1 VL with L54R, V62I, D80N, A87V, N95S
notes: chimeric human IgG4 (S-to-P, L-to-E at 248), human CL; also called Parental 2B11
B4: 3A07 (antibody, human IgG4, V domains shown)
VH: QVQLQQSGAELVRPGAPVTLSCKASDYTFTDSEIHWVKQTPVHGLEWIGEIDPETGGTAYNQKFKGKATLTADKSSSTAYMELRSLTSEDSAVYYCSRETDYFFDYWGQGTTLTVSS
VL: ENVLTQSPAIMSASPGEKVTMTCSASSSVSYMYWYQQRPGSSPRLLIYDTSNLASGVPVRFSGSGSGTSYSLTISRMEAEDAATYYCQQWSSYPLTFGSGTKLEIK
notes: chimeric human IgG4 (S-to-P, L-to-E at 248), human CL; also called Parental 3A07
B5: 3B04 (antibody, human IgG4, V domains shown)
VH: B4 VH with S7P, P17S, D26G, S32Y, I34M, G57D, N61S, L83F
VL: DIQMTQTPASLSASVGETVTITCGASENIYGALNWYQRKQGKSPQLLIYGATNLADGMSSRFSGSGSGRQYSLKISSLHPDDFATYYCQNVLTTPWTFGGGTKLEIKR
notes: chimeric: mouse variable domains on human IgG4 HC (S-to-P and L-to-E at 248) and human CL; also called Parental 3B04; 3B04 chimeric
B6: 3C10 (antibody, human IgG4, V domains shown)
VH: B4 VH with Q1E, P17S
VL: B4 VL with E1D, N2V, L4M, S7T, R38K, S99A, I105L
notes: chimeric human IgG4 (S-to-P, L-to-E at 248), human CL; also called Parental 3C10
B7: 3D12 (antibody, human IgG4, V domains shown)
VH: B4 VH with S7P, P17S
VL: B5 VL with T7S, F83V, T93S
notes: chimeric: mouse variable domains on human IgG4 HC (S-to-P and L-to-E at 248) and human CL; also called Parental 3D12; 3D12 chimeric

Target: T1, human LIGHT (TNFSF14), full length, membrane-bound (214E allele) (human, UniProt O43557 1-240)
T1 construct: also called membrane LIGHT; human membrane LIGHT
T1 sequence (O43557 whole entry K214E): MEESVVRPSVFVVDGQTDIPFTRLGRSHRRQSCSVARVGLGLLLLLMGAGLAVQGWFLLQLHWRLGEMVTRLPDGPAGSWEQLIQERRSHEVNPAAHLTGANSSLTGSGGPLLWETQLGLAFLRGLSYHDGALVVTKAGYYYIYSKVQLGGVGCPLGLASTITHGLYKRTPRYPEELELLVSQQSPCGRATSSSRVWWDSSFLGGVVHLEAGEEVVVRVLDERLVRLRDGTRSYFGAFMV
Test: competition with biotin-HVEM-Fc, EL4-LIGHT cells, flow cytometry
Procedure: Biotin-LTβR-Fc and biotin-HVEM-Fc were prepared using a kit purchased from ThermoFisher (EZ-Link NHS-LC-Biotin; cat. no. 21336) according to the manufacturer's instructions. […] The diluent used was FACS buffer. The cells were washed 3 times with FACS buffer and biotin-LTβR-Fc and biotin-HVEM-Fc binding detection to cells was performed with streptavidin-APC (1:400; BioLegend cat. No. 405207) for 30 min at 4° C. and fluorescence read in the RL-1 channel. The anti-HEL mAb 2A11 was utilised as a background control.
The above experiment was repeated utilising LIGHT stably expressed on EL4-cells and the results depicted in Table 11B.

Binder	IC50 [nM]
B1	24.1
B2	4.3
B3	0.34
B4	0.32
B5	0.13
B6	0.8
B7	0.16

Target: T1, human LIGHT (TNFSF14), full length, …
Test: competition with biotin-LTβR:Fc, HEK293FF LIGHT cells, flow cytometry
Procedure: The ability of the 7 chimeric mAbs to block biotin-HVEM:Fc and biotin-LTβR:Fc fusion proteins to cell surface expressed LIGHT using a flow cytometric based assay is shown in FIGS. 1A and 1B respectively. In these experiments, graded amounts of each antibody were added to the HEK293FF cells transiently transfected with LIGHT with a 50% saturating amount of the receptor fusion protein. As shown, each of the antibodies blocked either receptor fusion protein from binding LIGHT, in contrast to the irrelevant antibody control which had no effect on either Fc-receptor fusion protein binding. In each experiment, all antibodies blocked receptor binding in a dose dependent manner enabling analysis by non-linear regression to determine the IC50 dose as shown in Table 11A.

Binder	IC50 [nM]
B1	12
B2	14.4
B3	2.1
B4	1.4
B5	1.1
B6	1.9
B7	0.6

Target: T2, membrane LIGHT R189A (human, UniProt O43557 1-240)
T2 chain: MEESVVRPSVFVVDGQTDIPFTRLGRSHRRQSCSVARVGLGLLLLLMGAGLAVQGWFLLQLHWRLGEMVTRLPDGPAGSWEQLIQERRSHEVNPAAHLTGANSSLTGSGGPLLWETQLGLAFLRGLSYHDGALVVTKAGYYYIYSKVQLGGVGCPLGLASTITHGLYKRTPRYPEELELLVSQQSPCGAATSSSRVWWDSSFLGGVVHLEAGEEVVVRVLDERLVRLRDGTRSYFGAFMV
Test: flow cytometry, transfected HEK293FF, mAb at EC50
Procedure: (§1) The day of transfection the cells were seeded in a 24-well plate at 0.6×10⁶ cells/well. Lipofectamine 2000 (ThermoFisher scientific), 3 μl, was mixed with 50 μl OptiMEM medium (GIBCO) and then added to 50 μl Opti-MEM medium containing 3 ug plasmid DNA and incubated for 20 min at RT to form DNA-Lipofectamine 2000 complexes which were then added to the HEK293FF cells and incubated at 37° C., 5% CO₂ for 24 hours. For each construct, in duplicate, 0.60×10⁶ cells/well were used in a 96 well round bottom plate. Cells were centrifuged for 3 minutes at 300×g at 4° C., the supernatant discarded and the cells washed with 150 μl FACS buffer (0.5% FBS in phosphate buffered saline). This process was repeated 3 times. […] The wells were washed 3 times as above and 50 μl/well of goat anti-human IgG FITC (1:1500 dilution in FACS buffer, SIGMA F9512-2ML) or goat anti-mouse APC (1/500 dilution in FACS buffer, BDBioscience 550826), as appropriate, was added to the wells and incubated for 30 min at 4° C. protected from the light, with shaking. The cells were then washed as above, resuspended in 100 μl of FACS buffer and binding of the antibodies to the constructs was measured using flow cytometry and a total of 10,000 cells were acquired for each sample. Controls of buffer and secondary antibody only as well as HEK293FF non transfected cells were also used.

Binder	binding, % of WT [%]
B1	1
B2	2
B3	0
B4	0
B5	0
B6	0
B7	1

Target: T3, membrane LIGHT S194A (human, UniProt O43557 1-240)
T3 chain: T2 chain with A189R, S194A
Test: flow cytometry, transfected HEK293FF, mAb at EC50
Procedure: as §1

Binder	binding, % of WT [%]
B1	1
B2	3
B3	0
B4	1
B5	0
B6	0
B7	2

Target: T4, membrane LIGHT R195A (human, UniProt O43557 1-240)
T4 chain: T2 chain with A189R, R195A
Test: flow cytometry, transfected HEK293FF, mAb at EC50
Procedure: as §1

Binder	binding, % of WT [%]
B1	1
B2	43
B3	78
B4	15
B5	1
B6	6
B7	25

Target: T5, membrane LIGHT W198A (human, UniProt O43557 1-240)
T5 chain: T2 chain with A189R, W198A
Test: flow cytometry, transfected HEK293FF, mAb at EC50
Procedure: as §1

Binder	binding, % of WT [%]
B1	48
B2	83
B3	77
B4	82
B5	81
B6	86
B7	83

Target: membrane LIGHT without residues 81-84 (EL4-NC-LIGHT cells) (human, UniProt O43557 1-240)
Sequence (O43557 other isoform, or with tags, fused parts or gaps): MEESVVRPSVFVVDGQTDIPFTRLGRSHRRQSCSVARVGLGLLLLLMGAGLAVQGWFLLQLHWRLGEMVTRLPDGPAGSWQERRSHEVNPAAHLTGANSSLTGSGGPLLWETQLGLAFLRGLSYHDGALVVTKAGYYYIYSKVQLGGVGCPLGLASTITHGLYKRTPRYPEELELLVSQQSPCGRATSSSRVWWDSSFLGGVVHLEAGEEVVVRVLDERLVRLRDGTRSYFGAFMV
Test: cell-based or functional assay

Binder	IC50, nM membrane LIGHT (IL-8 release from HT-29 cells) [nM]
B2	1.8
B3	0.55
B4	2
B5	0.15
B6	1.9
B7	0.1

Target: T6, recombinant human soluble LIGHT, amino acids 74-240 (R&D Systems 664-LI-025) (human, UniProt O43557 74-240)
T6 chain: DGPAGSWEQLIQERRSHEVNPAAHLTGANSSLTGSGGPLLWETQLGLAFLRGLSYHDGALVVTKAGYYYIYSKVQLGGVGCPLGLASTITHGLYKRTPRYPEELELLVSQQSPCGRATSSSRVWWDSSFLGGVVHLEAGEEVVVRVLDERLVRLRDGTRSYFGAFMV
Test: cell-based or functional assay

Binder	IC50, nM soluble LIGHT (5 ng/ml; IL-8 release from HT-29 cells) [nM]
B2	> 100
B3	47
B4	> 100
B5	6.5
B6	> 100
B7	3.4
